{"source": "paper PMC6698736", "molecules": {"B1": {"name": "27-bp kacAT operator duplex (dsDNA)", "DNA 1": "AAATGTACGGTTATTAACCGTACATGA", "DNA 2": "TCATGTACGGTTAATAACCGTACATTT"}}, "key": {"[1]": {"molecular_target": "KacA, wild type, purified alone (Klebsiella pneumoniae)", "assay": "SEC-MALS"}, "[2]": {"molecular_target": "KacA (coexpressed in KacAT);KacT (Klebsiella pneumoniae;Klebsiella …, UniProt A0A0H3GLZ1;A0A0H3GMP0 1-88;1-177, |)", "assay": "X-ray crystallography"}}}
{"molecule": "KacT^Y145F (enzyme)", "values": [{"measurement": "N, peak α (KacT per KacA (8:8))", "setting": "[1]", "result": 1}, {"measurement": "N, peak β (KacT per KacA (2:4))", "setting": "[1]", "result": 0.5}]}
{"molecule": "KacA, wild type, purified alone (natural protein)", "values": [{"measurement": "stoichiometry N", "setting": "[1]", "result": 2}]}
{"molecule": "B1", "values": [{"measurement": "binding result", "setting": "[2]", "result": "binds"}]}
